The values that follow come from article PMC4851370, “The N-Terminus of the Floral Arabidopsis TGA Transcription Factor PERIANTHIA Mediates Redox-Sensitive DNA-Binding”.

What all share (conditions): protein: ivt; tags: none; chain copies: 2; label: 5' 32P; blunt
Data set [1] deals with T1, PANC27SC68SC87SC114SC154S (Arabidopsis thaliana, UniProt Q9SX27 1-452, C27S;C68S;C87S;C114S;C154S).
T1 sequence: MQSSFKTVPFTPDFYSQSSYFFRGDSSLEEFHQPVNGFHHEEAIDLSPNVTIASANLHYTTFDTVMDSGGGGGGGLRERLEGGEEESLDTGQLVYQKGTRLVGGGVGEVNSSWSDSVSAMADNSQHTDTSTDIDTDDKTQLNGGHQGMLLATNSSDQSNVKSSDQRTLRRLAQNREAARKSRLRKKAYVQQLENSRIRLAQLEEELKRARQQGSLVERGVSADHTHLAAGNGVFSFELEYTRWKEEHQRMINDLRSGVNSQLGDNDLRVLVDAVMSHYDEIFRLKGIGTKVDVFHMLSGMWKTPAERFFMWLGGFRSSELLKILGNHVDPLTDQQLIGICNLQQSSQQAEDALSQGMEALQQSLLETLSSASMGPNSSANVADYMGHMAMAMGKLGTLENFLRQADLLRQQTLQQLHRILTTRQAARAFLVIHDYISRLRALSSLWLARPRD
The data set can be described thus: EMSA; 2 mM diamide; no inhibition; EMSA as in cited ref 20 (buffer, salt, pH, temperature not given); with or without 0.9 or 20 mM DTT or 2 mM diamide, 30 min in the dark before probe addition. (In general: A gel shift assay detects complexes by their altered migration in electrophoresis.)

Data set [2] addresses T2, PANC27SC68SC87SC114SC154SC340S (PAN6xCysmut) (Arabidopsis thaliana, UniProt Q9SX27 1-452, C27S;C68S;C87S;C114S;C154S;C340S).
T2 sequence: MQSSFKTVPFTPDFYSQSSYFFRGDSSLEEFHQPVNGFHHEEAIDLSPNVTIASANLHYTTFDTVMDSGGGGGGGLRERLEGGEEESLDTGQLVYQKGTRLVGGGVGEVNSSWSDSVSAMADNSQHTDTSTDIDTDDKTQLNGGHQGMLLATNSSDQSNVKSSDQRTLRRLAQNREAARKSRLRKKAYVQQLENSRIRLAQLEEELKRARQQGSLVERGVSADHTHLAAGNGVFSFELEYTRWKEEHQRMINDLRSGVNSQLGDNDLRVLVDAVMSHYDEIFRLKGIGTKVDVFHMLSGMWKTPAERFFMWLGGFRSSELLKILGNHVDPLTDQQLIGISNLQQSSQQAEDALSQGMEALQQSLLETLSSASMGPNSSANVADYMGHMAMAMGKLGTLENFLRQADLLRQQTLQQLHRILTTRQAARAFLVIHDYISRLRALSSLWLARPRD
Described as above.

The target of a further data set is T3, TGA2 (Arabidopsis thaliana, UniProt P43273 1-330).
T3 sequence: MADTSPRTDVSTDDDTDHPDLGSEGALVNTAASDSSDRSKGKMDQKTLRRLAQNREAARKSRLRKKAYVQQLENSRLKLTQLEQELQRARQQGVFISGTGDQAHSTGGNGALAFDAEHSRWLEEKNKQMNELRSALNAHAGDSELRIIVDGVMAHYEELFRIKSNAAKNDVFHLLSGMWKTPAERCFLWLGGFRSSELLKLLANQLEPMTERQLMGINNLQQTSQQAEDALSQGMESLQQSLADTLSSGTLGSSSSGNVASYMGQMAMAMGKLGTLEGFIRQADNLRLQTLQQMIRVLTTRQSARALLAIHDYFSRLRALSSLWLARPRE
The data set can be described thus: EMSA; 0.9 mM DTT; EMSA as in cited ref 20 (buffer, salt, pH, temperature not given); with or without 0.9 or 20 mM DTT or 2 mM diamide, 30 min in the dark before probe addition.

A further data set has as its target T4, TGA3 (Arabidopsis thaliana, UniProt Q39234 1-384).
T4 sequence: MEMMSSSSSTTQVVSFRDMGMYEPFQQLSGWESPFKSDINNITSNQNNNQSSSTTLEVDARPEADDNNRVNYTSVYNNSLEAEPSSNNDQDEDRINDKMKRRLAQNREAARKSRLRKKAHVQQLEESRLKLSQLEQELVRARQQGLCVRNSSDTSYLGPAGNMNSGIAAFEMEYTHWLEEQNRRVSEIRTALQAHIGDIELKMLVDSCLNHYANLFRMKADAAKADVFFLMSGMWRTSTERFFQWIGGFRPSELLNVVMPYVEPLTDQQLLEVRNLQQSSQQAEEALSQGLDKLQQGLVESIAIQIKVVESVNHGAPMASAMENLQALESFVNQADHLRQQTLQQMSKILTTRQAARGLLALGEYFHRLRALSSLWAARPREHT
The description is as above.

A further data set has as its target T5, TGA10 (Arabidopsis thaliana, UniProt E3VNM4 1-460).
T5 sequence: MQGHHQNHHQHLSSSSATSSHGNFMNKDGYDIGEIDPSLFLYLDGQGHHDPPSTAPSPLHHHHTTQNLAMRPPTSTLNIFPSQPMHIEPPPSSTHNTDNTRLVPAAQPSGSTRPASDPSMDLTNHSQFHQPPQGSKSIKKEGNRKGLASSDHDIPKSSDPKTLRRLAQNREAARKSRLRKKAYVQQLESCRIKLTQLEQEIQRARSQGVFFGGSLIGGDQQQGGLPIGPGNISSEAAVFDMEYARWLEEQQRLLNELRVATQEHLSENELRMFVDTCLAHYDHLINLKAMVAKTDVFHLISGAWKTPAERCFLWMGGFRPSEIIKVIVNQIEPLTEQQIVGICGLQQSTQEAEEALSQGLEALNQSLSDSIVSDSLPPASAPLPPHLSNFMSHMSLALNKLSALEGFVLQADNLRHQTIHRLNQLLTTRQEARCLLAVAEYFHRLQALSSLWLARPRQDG
The description is as above.

The next data set has as its target T6, PANC68SC87S (Arabidopsis thaliana, UniProt Q9SX27 1-452, C68S;C87S).
T6 sequence: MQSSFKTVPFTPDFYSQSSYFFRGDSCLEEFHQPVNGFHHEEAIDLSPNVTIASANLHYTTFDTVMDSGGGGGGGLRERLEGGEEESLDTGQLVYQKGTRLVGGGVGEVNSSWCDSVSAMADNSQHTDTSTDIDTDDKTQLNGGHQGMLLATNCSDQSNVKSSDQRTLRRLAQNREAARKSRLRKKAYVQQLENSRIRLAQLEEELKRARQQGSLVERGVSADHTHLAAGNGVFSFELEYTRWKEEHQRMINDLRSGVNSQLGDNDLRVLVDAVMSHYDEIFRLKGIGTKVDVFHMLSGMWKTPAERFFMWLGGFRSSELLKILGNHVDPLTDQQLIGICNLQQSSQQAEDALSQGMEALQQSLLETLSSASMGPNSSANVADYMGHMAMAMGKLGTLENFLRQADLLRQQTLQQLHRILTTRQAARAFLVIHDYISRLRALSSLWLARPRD
The data set is described as above.

A further data set has as its target T7, TGA1 (Arabidopsis thaliana, UniProt Q39237 1-368).
T7 sequence: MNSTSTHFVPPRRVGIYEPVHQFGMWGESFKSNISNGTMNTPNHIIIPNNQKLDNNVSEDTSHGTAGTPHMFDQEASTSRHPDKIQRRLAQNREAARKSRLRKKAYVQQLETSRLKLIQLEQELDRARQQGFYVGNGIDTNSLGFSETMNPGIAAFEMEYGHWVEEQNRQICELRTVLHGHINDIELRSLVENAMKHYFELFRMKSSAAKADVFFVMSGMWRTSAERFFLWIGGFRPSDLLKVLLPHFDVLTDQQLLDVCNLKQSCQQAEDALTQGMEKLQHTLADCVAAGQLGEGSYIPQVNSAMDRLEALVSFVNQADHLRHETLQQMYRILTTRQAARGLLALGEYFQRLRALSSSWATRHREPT
The description is as above.

The target of a further data set is T8, … (PAN) (Arabidopsis thaliana, UniProt Q9SX27 1-452).
T8 sequence: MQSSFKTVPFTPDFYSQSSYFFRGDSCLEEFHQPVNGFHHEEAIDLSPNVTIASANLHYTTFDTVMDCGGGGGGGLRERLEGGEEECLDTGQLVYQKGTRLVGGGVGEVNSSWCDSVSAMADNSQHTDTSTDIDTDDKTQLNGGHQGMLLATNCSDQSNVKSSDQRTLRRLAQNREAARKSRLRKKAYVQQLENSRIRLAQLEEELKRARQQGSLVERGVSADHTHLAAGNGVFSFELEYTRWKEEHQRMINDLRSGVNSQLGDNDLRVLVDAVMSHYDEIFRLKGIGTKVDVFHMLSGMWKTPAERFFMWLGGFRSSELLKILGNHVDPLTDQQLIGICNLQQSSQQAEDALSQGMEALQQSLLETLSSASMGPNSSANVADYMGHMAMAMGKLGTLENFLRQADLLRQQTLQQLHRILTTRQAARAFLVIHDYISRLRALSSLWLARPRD
The data set can be described thus: EMSA; EMSA as in cited ref 20 (buffer, salt, pH, temperature not given); with or without 0.9 or 20 mM DTT or 2 mM diamide, 30 min in the dark before probe addition.

For the next data set, the target named is T9, PANΔN (Arabidopsis thaliana, UniProt Q9SX27 167-452, del1-166).
T9 sequence: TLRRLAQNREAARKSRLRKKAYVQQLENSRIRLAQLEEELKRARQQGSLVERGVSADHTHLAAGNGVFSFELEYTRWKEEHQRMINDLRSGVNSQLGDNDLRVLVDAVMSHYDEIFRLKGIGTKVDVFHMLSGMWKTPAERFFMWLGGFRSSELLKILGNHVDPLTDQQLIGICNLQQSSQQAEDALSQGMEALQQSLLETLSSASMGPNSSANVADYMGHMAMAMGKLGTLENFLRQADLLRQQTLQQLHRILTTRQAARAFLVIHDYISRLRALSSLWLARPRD
In words: EMSA; 2 mM diamide; no reduction; EMSA as in cited ref 20 (buffer, salt, pH, temperature not given); with or without 0.9 or 20 mM DTT or 2 mM diamide, 30 min in the dark before probe addition.

B1: AAGAAT (dsDNA)
DNA 1: AAGAATCTTTGATCACGTCATCACTCAGATATT
DNA 2: AATATCTGAGTGATGACGTGATCAAAGATTCTT
With B1, the binding result (in data set [1]; in data set [2]; with TGA2; with TGA3; in the data set with TGA10; in the data set with PANC68SC87S) was “binds” each time. In addition, the binding result with TGA1, with … (PAN) and with PANΔN was “binds” each time.

B2: ΔbZIP (dsDNA)
DNA 1: AAGAATCTTTGATCAAATCATCACTCAGATATT
DNA 2: AATATCTGAGTGATGATTTGATCAAAGATTCTT
On to B2, for which the binding result in the data set with … (PAN) is reported as “no binding”.
